Data from US20230279451A1, “METHODS FOR THE BIOCATALYTICAL MANUFACTURING OF DIHYDROCHALCONES” (SYMRISE AG, priority 2019, published 2023).
Positions count from the first letter of the chain named. Names and notes keep the numbering of the source. “Also recorded” adds a separate entry of the source.

B1: L92Q: variant of the O-methyltransferase from Myxococcus xanthus (MxSafC_L92Q) (protein)
chain: MIHHVELTQSVLQYIRDSSVRDNDILRDLREETSKLPLRTMQIPPEQGQLLSLLVRLIGARKTLEVGVFTGYSTLCAALALPADGRVIACDQSEEWVSIARRYWQRAGVADRIEVRLGDAHHSLEALVGSEHRGTFDLAFIDADKESYDFYYEHALRLVRPGGLIILDNTLWSGKVADPSVVGDPETDSLRRINAKLLTDERVDLSMLPIADGLTLARKR
modifications: MxSafC_L92Q
B2: M5: quintuple mutant of MxSafC combining mutation T40P/L92Q/W96A/D119P/S173H (protein)
chain: B1 chain with T40P, W96A, D119P, S173H
modifications: MxSafC_M5
notes: quintuple mutant of MxSafC combining mutation T40P/L92Q/W96A/D119P/S173H
B3: S173H: variant of the O-methyltransferase from Myxococcus xanthus (MxSafC_S173H) (protein)
chain: B1 chain with Q92L, S173H
modifications: MxSafC_S173H
B4: T40P/S173H: double mutant variant of the O-methyltransferase from Myxococcus xanthus (MxSafC_T40P_S173H) (protein)
chain: B1 chain with T40P, Q92L, S173H
modifications: MxSafC_T40P_S173H
B5: T40P: variant of the O-methyltransferase from Myxococcus xanthus (MxSafC_T40P) (protein)
chain: B1 chain with T40P, Q92L
modifications: MxSafC_T40P
B6: W96A: variant of the O-methyltransferase from Myxococcus xanthus (MxSafC_W96A) (protein)
chain: B1 chain with Q92L, W96A
modifications: MxSafC_W96A
B7: D119P: variant of the O-methyltransferase from Myxococcus xanthus (MxSafC_D119P) (protein)
chain: B1 chain with Q92L, D119P
modifications: MxSafC_D119P

Experiment: Biotransformation of 3-hydroxyphloretin with lysed E. coli BL21(DE3) cells expressing MxSafC wild-type or variants (LC-MS)
Type: biochemical
Conditions: 3 mM 3-hydroxyphloretin, 3 mM S-adenosylmethionine, 25° C., 24 hours; for product specificity towards hesperetin dihydrochalcone: compared with wild-type MxSafC, FIG. 10 dark grey; for enzyme activity (conversion of 3-hydroxyphloretin): FIG. 10 light grey bars
From the text: FIG. 10: Biotransformation of 3-Hydroxyphloretin with lysed E. coli BL21 (DE 3) cells, which express MxSafC (wild-type (wt), cf. SEQ ID NOs: 13, 14, 55), or specific variants or mutants thereof (cf. SEQ ID NOs: 56 to 76). Hesperetin dihydrochalcone as well as homoeriodictyol (HED) dihydrochalcone are the products. Conversion of 3-hyroxyphloretin (30HP) shown in light grey, product specificity towards hesperetin dihydrochalcone is shown in dark grey.
MxSafC mutant variants correspond to SEQ ID NOs: 56 to SEQ ID NO: 76. These were synthesized (BioCat GmbH, Heidelberg, Germany) and cloned into pET28a between NcoI and HindIII restriction sites, respectively. SEQ ID NOs: 13, 14 and 55 show the respective wild-type sequence. By artificial design, certain mutants were created to optimize the activity and/or specificity of the MxSafC enzyme. Interesting single, double and quintuple mutants could be identified, as shown in detail in the results in FIG. 10.
First, various positions within MxSafC (SEQ ID NO: 14) were randomly mutated. All mutants were characterized and checked for activity. In a second round, targeted mutations and combinations thereof were tested in an iterative manner to identify suitable mutants for commercial purposes that have a good activity and conversion rate, but at the same time a good or even improved product specificity. Indeed, certain variants could be identified that fulfill these needs.
30 E. coli BL21(DE3) cells, each containing a plasmid from Table 1, were used to inoculate 5 ml of LB medium (Carl Roth GmbH, Karlsruhe, Germany) with the corresponding antibiotic. After incubation for 16 h (37° C., 200 rpm), 20 ml TB medium (Carl Roth GmbH, Karlsruhe, Germany) were inoculated with an OD600 of 0.1 from these cultures. These main cultures were incubated (37° C., 200 rpm) until an OD600 of 0.5-0.8 was achieved. After addition of 1 mM isopropyl-β-D-thiogalactopyranoside, the cultures were incubated for a further 16 h (22° C., 200 rpm). The main culture was centrifuged (10 min, 10,000 rpm), the pelleted cells were decomposed using the B-PER protein extraction reagent (Thermo Fisher Scientific, Bonn, Germany) according to the manufacturers specifications. After additional centrifugation (10 min, 14,000 rpm) the supernatant was mixed with 3 mM 3-hydroxyphloretin, 3 mM S-adenosylmethionine, 0.1 mM MgCl2. The reaction mixture was incubated at 25° C. for 24 hours. After stopping the assay with 20% trichloroacetic acid ([…] final concentration) the sample was centrifuged and the supernatant used for LC-MS analysis.

Molecule	product specificity towards hesperetin dihydrochalcone	enzyme activity (conversion of 3-hydroxyphloretin)
B1	nearly balanced	
B2	performed better than the wild-type	
B3	performed better than the wild-type	particularly favorable
B4	performed better than the wild-type; also recorded: a good specificity	a technically reasonable activity
B5	performed better than the wild-type	particularly favorable
B6	performed better than the wild-type	
B7	nearly balanced	
